Experimental data reported in PMC7057681 (ACS Omega, 2020).
Numbering of substitutions follows the chain as printed. In names and notes the source's numbering stands.

Legend:
[1] = biological target: the molecule itself; experiment: SEC-SAXS
[2] = biological target: the molecule itself; experiment: SEC
[3] = biological target: the molecule itself; experiment: SEC; remark: listed apart in the source

B1: S100A3 R51Q mutant (natural protein, human)
chain: MARPLEQAVAAIVCTFQEYAGRCGDKYKLCQAELKELLQKELATWTPTEFQECDYNKFMSVLDTNKDCEVDFVEYVRSLACLCLYCHEYFKDCPSEPPCSQ
stoichiometry N [1]: 2
stoichiometry N [2]: 4

B2: S100A3 R51E mutant (natural protein, human)
chain: B1 chain with Q51E
stoichiometry N [3]: 4

B3: citrullinated S100A3 (R51Z), WT S100A3 citrullinated in vitro by PAD3 (natural protein, human)
chain: B1 chain with Q51R
modifications: citrulline at R51 (by PAD3 in vitro)
stoichiometry N [2]: 4
